Earlier results on one substance are cited in article PMC13351906.

The series deals with IL-6 receptor (Homo sapiens) (UniProt P08887). Briefly: 125I-rhIL-6 radioligand binding.
Chain of UniProt P08887 (P08887 20-365): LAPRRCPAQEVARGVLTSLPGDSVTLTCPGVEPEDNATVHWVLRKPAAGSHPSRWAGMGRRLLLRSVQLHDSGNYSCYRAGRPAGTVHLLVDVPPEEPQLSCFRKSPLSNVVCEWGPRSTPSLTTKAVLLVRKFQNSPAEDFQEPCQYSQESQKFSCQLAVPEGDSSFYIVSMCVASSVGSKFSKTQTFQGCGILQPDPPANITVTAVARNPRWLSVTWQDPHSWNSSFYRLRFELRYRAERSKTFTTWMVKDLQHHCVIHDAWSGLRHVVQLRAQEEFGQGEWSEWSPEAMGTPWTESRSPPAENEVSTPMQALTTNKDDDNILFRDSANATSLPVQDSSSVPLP

Chain of IL-6 (P05231 30-212): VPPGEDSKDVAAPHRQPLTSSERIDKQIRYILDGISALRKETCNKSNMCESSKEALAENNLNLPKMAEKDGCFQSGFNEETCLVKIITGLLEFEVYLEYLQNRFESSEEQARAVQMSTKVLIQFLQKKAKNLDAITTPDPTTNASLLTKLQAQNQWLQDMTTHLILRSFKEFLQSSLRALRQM

For orientation: Kd means the free concentration of one partner at which half of the binding sites on the other are occupied at equilibrium, for simple one-to-one binding. IL-6 (from UniProt P05231): the dissociation constant Kd was 0.44 nM.
